Some targets named below: human cathepsin B (UniProt P07858); human elastase (UniProt P08246); human cathepsin L (UniProt P07711); human cathepsin V (UniProt O60911); human granzyme B (UniProt P10144).
A further series has as its target T1, human cathepsin H (UniProt P09668).
T1 sequence: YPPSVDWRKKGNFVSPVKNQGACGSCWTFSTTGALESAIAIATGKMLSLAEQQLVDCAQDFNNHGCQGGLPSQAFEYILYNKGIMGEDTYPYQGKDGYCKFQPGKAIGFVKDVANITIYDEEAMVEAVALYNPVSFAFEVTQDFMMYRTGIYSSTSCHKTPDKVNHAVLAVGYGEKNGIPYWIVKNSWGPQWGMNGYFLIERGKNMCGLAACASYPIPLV

Another series has as its target T2, human granzyme A (UniProt P12544).
T2 sequence: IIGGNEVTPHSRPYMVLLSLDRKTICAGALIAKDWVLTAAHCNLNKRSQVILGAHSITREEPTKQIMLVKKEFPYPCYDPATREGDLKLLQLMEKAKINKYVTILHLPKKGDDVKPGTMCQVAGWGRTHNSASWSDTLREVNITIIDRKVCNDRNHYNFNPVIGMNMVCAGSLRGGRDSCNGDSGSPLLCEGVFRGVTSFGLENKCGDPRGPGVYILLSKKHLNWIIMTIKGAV

A further series concerns the target T3, human cathepsin K (UniProt P43235).
T3 sequence: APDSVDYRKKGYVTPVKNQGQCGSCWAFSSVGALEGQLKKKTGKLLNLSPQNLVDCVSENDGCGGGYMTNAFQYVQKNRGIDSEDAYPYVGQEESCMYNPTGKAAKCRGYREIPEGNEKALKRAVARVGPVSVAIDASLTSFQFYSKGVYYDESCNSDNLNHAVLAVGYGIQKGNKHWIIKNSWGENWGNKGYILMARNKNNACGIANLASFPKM

The next series deals with T4, human cathepsin G (UniProt P08311).
T4 sequence: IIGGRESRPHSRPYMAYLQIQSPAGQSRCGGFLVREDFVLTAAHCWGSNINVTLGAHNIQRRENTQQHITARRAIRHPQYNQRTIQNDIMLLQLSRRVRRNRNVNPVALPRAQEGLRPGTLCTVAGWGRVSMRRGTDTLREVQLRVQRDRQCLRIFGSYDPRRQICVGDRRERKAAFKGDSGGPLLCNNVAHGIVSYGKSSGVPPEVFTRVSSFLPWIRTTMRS

In series [1] the test system is Spi2A-3xFLAG (murine serine protease inhibitor 2A with a C-terminal 3xFLAG epitope tag).

Chain of human granzyme B (P10144 21-247): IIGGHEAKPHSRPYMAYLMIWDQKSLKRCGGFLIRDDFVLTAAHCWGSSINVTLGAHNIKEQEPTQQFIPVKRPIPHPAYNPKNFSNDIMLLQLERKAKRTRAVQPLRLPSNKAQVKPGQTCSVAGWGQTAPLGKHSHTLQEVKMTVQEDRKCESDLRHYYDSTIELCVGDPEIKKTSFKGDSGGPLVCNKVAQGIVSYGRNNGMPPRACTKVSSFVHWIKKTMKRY
Chain of human cathepsin V (O60911 114-334): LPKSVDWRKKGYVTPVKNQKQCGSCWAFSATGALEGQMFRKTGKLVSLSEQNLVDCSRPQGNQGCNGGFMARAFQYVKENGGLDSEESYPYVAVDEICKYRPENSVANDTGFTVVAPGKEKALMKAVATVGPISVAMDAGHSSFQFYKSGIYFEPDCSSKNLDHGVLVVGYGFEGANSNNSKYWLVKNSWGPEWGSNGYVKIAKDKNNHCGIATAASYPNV
Chain of human cathepsin L (P07711 114-333): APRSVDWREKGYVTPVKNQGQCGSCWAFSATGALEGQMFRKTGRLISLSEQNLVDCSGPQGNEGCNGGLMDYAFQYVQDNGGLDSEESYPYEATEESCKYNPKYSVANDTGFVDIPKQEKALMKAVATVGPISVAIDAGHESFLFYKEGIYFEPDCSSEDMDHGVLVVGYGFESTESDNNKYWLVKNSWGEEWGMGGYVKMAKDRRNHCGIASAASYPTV
Chain of human elastase (P08246 30-247): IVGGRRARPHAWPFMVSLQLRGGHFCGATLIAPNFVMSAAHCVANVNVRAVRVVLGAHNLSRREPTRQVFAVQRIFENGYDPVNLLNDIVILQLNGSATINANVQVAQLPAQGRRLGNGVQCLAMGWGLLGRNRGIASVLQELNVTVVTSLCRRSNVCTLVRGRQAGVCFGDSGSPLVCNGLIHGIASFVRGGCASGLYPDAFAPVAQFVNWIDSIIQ

Consider “alkaline phosphatase tagged with C-terminal 3xFLAG (Sigma-Aldrich)”, for which the “protease activity after incubation under the same conditions as with Spi2A” value with human cathepsin B, with human cathepsin H, with human granzyme A, with human elastase, with human cathepsin L and in the series with human cathepsin K was “had no effect on protease activity” each time. Further, the “protease activity after incubation under the same conditions as with Spi2A” value with human cathepsin G, with human cathepsin V and with human granzyme B was “had no effect on protease activity” in each case.

As to human cathepsin B, the “continuous hydrolysis of the cathepsin B substrate (Z-FR)2-R110, 20 nM cathepsin B with 200 or 400 nM Spi2A” value in series [1] is recorded as “The enzyme was completely inhibited, within the dead time of the measurement”.
